Test results as given in patent US20190225694A1 (ZAKLADY FARMACEUTYCZNE POLPHARMA, published 2019).

B1: natalizumab biosimilar antibody produced by CHO DG44 Clone 1 (antibody, human IgG4, kappa, V domains shown)
VH: QVQLVQSGAEVKKPGASVKVSCKASGFNIKDTYIHWVRQAPGQRLEWMGRIDPANGYTKYDPKFQGRVTITADTSASTAYMELSSLRSEDTAVYYCAREGYYGNYGVYAMDYWGQGTLVTVSS
VL: DIQMTQSPSSLSASVGDRVTITCKTSQDINKYMAWYQQTPGKAPRLLIHYTSALQPGIPSRFSGSGSGRDYTFTISSLQPEDIATYYCLQYDNLWTFGQGTKVEIKR
notes: Tested product from the clone selection step; full-length IgG4
B2: natalizumab reference product (9 batches) (antibody, human IgG4, kappa, V domains shown)
VH: B1 VH
VL: B1 VL
B3: natalizumab biosimilar antibody produced by CHO DG44 Clone 2 (antibody, human IgG4, kappa, V domains shown)
VH: B1 VH
VL: B1 VL
notes: as for B1

Assays:
α4β7 integrin = α4β7 integrin (UniProt P13612 34-970; P26010 20-723); assay: competitive ELISA, coated α4β7 integrin, Fc-tagged MadCAM-1 as competitor, bound antibody detected with anti-human IgG-POD, 4PL fit
Description: Constant amount of the coated α4β7 integrin is incubated with serial dilutions of natalizumab in the presence of Fc-tagged MadCAM-1 receptor. natalizumab and MadCAM-1 receptor now compete for binding to solid-phase associated α4β7 integrin. The higher the natalizumab concentration the more MadCAM-1 is inhibited from binding to α4β7 integrin. The lowest signal result is observed when no natalizumab is present. Bound natalizumab is subsequently detected with a POD-conjugated anti-human IgG antibody and a TMB-substrate reaction at the end of the assay.
(§1) Data are analyzed with 4PL fitting model. Final result is expressed as a Relative Potency (REP) of tested sample in relation to reference standard. The method variability was determined at the level of 8% coefficient variation (CV) of intermediate precision within the qualification exercise. Additionally accuracy, linearity and specificity were tested.

[1] = target: T1, integrin α4β1 (coated, direct ELISA) (UniProt P13612 34-970; P05556 21-728, limits assumed); assay: direct ELISA, coated integrin α4β1, anti-human IgG-HRP detection, 4PL fit
T1 construct: Coated on the plate in the direct ELISA; also called α4β1 integrin; VLA-4
Description: The principle of this method is to incubate a coated constant amount of integrin α4β1 with serially diluted natalizumab samples. The amount of bound natalizumab is subsequently determined by a mouse, monoclonal anti-human IgG antibody, which is conjugated to horseradish peroxidase (HRP). HRP converts the chromogenic substrate TMB (3,3′,5,5′-tetramethylbenzidine) into a colored dye. The color reaction is measured spectrophotometrically at wavelength 450 nm.
Data are analyzed applying 4 Parameter Logistic nonlinear regression model (4PL), which is commonly used for curve-fitting analysis in bioassays or immunoassays such as ELISAs or dose-response curves. Final result is expressed as a Relative Potency (REP) of tested sample in relation to interim reference standard established at Polpharma site. The method variability was determined at the level of 7% coefficient variation (CV) of intermediate precision within the qualification exercise.

HIS-tagged α4β1 integrin = HIS-tagged α4β1 integrin (UniProt P13612 34-970; P05556 21-728, limits assumed); assay: competitive ELISA, coated VCAM-1 as competitor, HIS-tagged α4β1 integrin in solution, 4PL fit
Description: Constant amount of the coated VCAM-1 protein is incubated with serial dilutions of natalizumab in the presence of HIS-tagged α4β1 integrin. Solid-phase associated VCAM-1 and soluble natalizumab now compete for binding to α4β1 integrin. The higher the natalizumab concentration the more α4β1 Integrin is inhibited from binding to VCAM-1. The highest signal result is observed when no natalizumab is present. Bound HIS-tagged α4β1 integrin is subsequently detected with a biotinylated anti-HIS-tag antibody, POD-conjugated Streptavidin and a TMB-substrate reaction at the end of the assay.
as §1, with “7%” for “8%”

Binder | Relative Potency (REP), average (α4β7 integrin) | Relative Potency (REP), max (α4β7 integrin) | Relative Potency (REP), min (α4β7 integrin) | Relative Potency (REP), average [1] | Relative Potency (REP), max [1] | Relative Potency (REP), min [1] | Relative Potency (REP), average (HIS-tagged α4β1 integrin) | Relative Potency (REP), max (HIS-tagged α4β1 integrin) | Relative Potency (REP), min (HIS-tagged α4β1 integrin)
B1 | 0.81 relative to reference standard | 0.857 relative to reference standard | 0.738 relative to reference standard | 0.769 relative to interim reference standard | 0.847 relative to interim reference standard | 0.723 relative to interim reference standard | 0.829 relative to reference standard | 0.842 relative to reference standard | 0.805 relative to reference standard
B2 | 0.998 relative to reference standard | 1.08 relative to reference standard | 0.922 relative to reference standard |  |  |  | 1.02 relative to reference standard | 1.15 relative to reference standard | 0.935 relative to reference standard
B3 | 0.831 relative to reference standard | 0.858 relative to reference standard | 0.79 relative to reference standard | 0.679 relative to interim reference standard | 0.732 relative to interim reference standard | 0.611 relative to interim reference standard | 0.903 relative to reference standard | 0.93 relative to reference standard | 0.85 relative to reference standard
